Experimental findings from a protein production outcome set (Wang et al. 2014) are described below.

A short description of the series: label from the status in PepcDB records.
Regarding “MDNKKLFVFIKYFTLVFMIVGIIFGGKEFNAQNITLMLILIINHQLRTFSLNKYIHKIISFILEIVLVVICNFWISGYLFTYLILLAIDANVMFKKFLASTFNVVIILIGVYFSFNYSLNYKIMNLGVSIIIIAVFYFNKYENEKKIEAQDLYDRLRISEEKLKKANRDLEMYASSVEELTLLRERNRISREIHDSVGHSLSTMVIQLGAIEKIIRKAPEKAELLTKNLRKFTQKSLDEVRAAVRAIKPKEFEEYEGILSIEELISNFKKMANIDVRLAFTKEKWSLNSDQSFVLYRIVQEFLSNSARHGRASRVDVIMAFSEKNLLVTLKDNGQGCQSIIEGVGMKSMRERVKELGGYFEYKTAPYEGFTVKIELAKREKLKVYSGGENNG”, the protein production entry was “failed”.
For “MDNKVILVGGFHEIIELCEDNDIEIAGIIDNYLTNDTYWGYPIIGTDDKAKVLFETYKNVPVLITPDVPHVRYKLYHYYKSIGFQVASLISRDASISRSAIIGEGTIIQRGANLSSNIKIGQMVKVNTNANIMHDCLIGNYVTVAPNAVLLGKVEIDDKAYIGANATLLPSVKIGENVTVGAGSVVTKSVRPNTVVKGSPAK”, the protein production entry is recorded as “failed”.
For “MDNLETDRLILINYTLEMIQATINGTEALEKTSGYHVSPDWPGIDFFFYLPYVLENVKKDDKMIKWTRLVVLKTENKIIGEIGGQGNPDETGEIEIGYSIVPDYQNKGYMSEALISMIDWLEHQPVINRIFARCYEQNEASIQVLKHNHFVH” the value was “failed”; for “MDNPCPTCGQELEWTGQYHCSACTVDYCKVGFCPECGSELEKLQACGAANYFCNQCNELKSKSKIRFVFQPLNGNSQLEHHHHHH”, “not failed”; for “MDNRNIDPYFNPEQFLETQKYKGTVTALIFLLLFFIFLMVAFKKAFFAQANMPNLVMSKQDTAARGTIYSQDNYSLATSQTLFKLGFDTRFLNPDKEDFFIDFLSIYSNIPKKSLKDAINTKGYIILAYDLTPNMAANIRDLNKKFLAFGVFQNFKDAHDKVWQKQGLNIEVSGVSRHYPYQNSLEPIIGYVQKQEEDKLTLTTGKKGVEKSQDHLLKAQQNGIRTGKRDVSFNFIQNHSYTEVERLDGYEVYLSVPLKLQREIETLLDKTKDKLKAKEILVGIINPKSGEILSLASSKRFNPNAIKTSDYESLNLSVAEKVFEPGSTIKPIVYSLLLDKNLINPKERIDLNHGYYQLGKYTIKDDFIPSKKAVVEDILIQSSNVGMIKISKNLNPKDFYNGLLGYGFSQKTGIDLSLEATGKIPPLSAFKREVLKGSVSYGYGLNATFLQLLRAYAVFSNEGKLTTPYLVQRETAPNGDIYIPSPKPTFQVISPKSARKMKETLIKVVRYGTGKNAQFEGLYIGGKTGTARVAKNGSYSAQSYNSSFFGFAEDERQVFTIGVVILGSHGKEEYYASKIAAPIFKEITEILVRYNYLSPSIAIQNALEKNRFKIK”, “failed”.
For the sequence “MDNTRSVYGIDLGTTYSCIAQVDKFDQAIVLRNFEGDATTPSAVYFEDMDHVVVGKEAKGMLATEPTKTAVFIKRHIGVDDSFDKNTNEFPYHYDPTEISAFILKKLVKDANDLGDNPEPIKDVVITCPAYFGTKERMQTKQAGEIAGLNVLSIINEPTAAAISYGVKTDQKKTVLVYDLGGGTFDVTLINVNGGAIKVIATGGDHHLGGVDWDTALAEYMLAAFNEQNNTSYSFEDRLDLKYELLLLAEDKKKVLTAKQTAKATYQYEGNSARIEISRELFNSLTERKLDETIDATKKVIAIAKEKGYNNIDEILLVGGSSRMPQIKERVDKEFNCDAKLTDPDECVAKGAAIYAMNAAYSQAVRDYEEGESDDKPAPLRGDRTTVVNVTSKTYGTDVIIEGQSMVQNLIFANSSLPTKRIETFTTSIPNQRGVSVKVFESDFTNMETESIVEERFCTLIDDHTLKLSKDWPQGTQISVTYQIDQEGILHGLAYVENDKLEFDLKITGVKCEEELRKSKAIIDKASVE”, the protein production entry is “failed”.
Take “MDPAMSFAEIFTVVVPVFLVIAVGYGTGRRALFDAGGAQALRELTMQLALPAALLLSIWQTPRRVLVEQLPLVGLLAFGLLGVYAVLLGVLRLAGRRPLRRAALFALACVQPQYAFMGTSILGGLFGTAQAAVPIAVAGILVNVVLDPVVLILLGMPEHPASRTAATAAAATSAVRRPALVTVGGGAPGESVEAAAPVAAGDASPEHRPSVLRTVGHALREPFCWGPVLGLILSVGGVGVPKVAGTSLTLLAGAASAAALLYVGVSVSRIGRPKLTPAVWAIALTSVVVLPLLVYGAGLAMASAADAAQAALIVAFPVSPVPLMFAARHGSKADVRTIGSAVVLSLLLSFVTLPLLIELIG”: the protein production entry is “not failed”.
Turning to “MDPEKGTIRLDFMHSLGTWMVPELIRTFRAEHPNVEFQLHQAAAMLLVDRVLADETDLALVGPKPAEVGTSLGWAPLLRQRLALAVPADHRLASFSGQGELPLITAAEEPFVAMRAGFGTRLLMDALAEEAGFVPNVVFESME”, the protein production result is “failed”.
